Test results: the supplement of paper PMC10567573

B1: FUNDC2 (parent)
chain: YIKVDWQRVEKDMKKAKEQLKIRK

Variants of: B1
Assay: protein stability index of a GFP-peptide fusion (GPS, HEK-293T) (PSI 1-6); higher = more stable
Settings: c terminus: a fixed tail appended
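Further: lentivirally expressed fusions sorted by FACS into six bins by GFP to DsRed ratio, PSI derived from sequencing read proportions per bin multiplied by bin number.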

In order of falling protein stability index:
1. YIDVDWQRVEKDMKKAKEQLKIRK  4.58
2. YEKVDWQRVEKDMKKAKEQLKIRK  4.42
3. EIKVDWQRVEKDMKKAKEQLKIRK  4.15
4. PIKVDWQRVEKDMKKAKEQLKIRK  3.81
5. YIKVDDQRVEKDMKKAKEQLKIRK  3.77
6. YIKVDWQRVEKVMKKAKEQLKIRK  3.62
7. RIKVDWQRVEKDMKKAKEQLKIRK  3.6
8. YNKVDWQRVEKDMKKAKEQLKIRK  3.6
9. YIKVAWQRVEKDMKKAKEQLKIRK  3.55
10. YIKVDWQRVEKDMKKAKEQLKINK  3.5
11. QIKVDWQRVEKDMKKAKEQLKIRK  3.49
12. YSKVDWQRVEKDMKKAKEQLKIRK  3.37
13. YAKVDWQRVEKDMKKAKEQLKIRK  3.35
14. YIKVWWQRVEKDMKKAKEQLKIRK  3.34
15. YIKVDSQRVEKDMKKAKEQLKIRK  3.31
16. YIKVYWQRVEKDMKKAKEQLKIRK  3.3
17. YIKVDPQRVEKDMKKAKEQLKIRK  3.15
18. SIKVDWQRVEKDMKKAKEQLKIRK  3.11
19. TIKVDWQRVEKDMKKAKEQLKIRK  3.07
20. YIKVDWQRVEKDMKKQKEQLKIRK  3
21. AIKVDWQRVEKDMKKAKEQLKIRK  2.98
22. YIKVDTQRVEKDMKKAKEQLKIRK  2.97
23. YWKVDWQRVEKDMKKAKEQLKIRK  2.96
24. YIKVDEQRVEKDMKKAKEQLKIRK  2.91
25. YIKVDWGRVEKDMKKAKEQLKIRK  2.9
26. YIKVDWQRVEKDMKKAMEQLKIRK  2.83
27. YIKVDWQRVEKDMKKAKEQLKIRA  2.81
28. YFKVDWQRVEKDMKKAKEQLKIRK  2.74
29. YIKRDWQRVEKDMKKAKEQLKIRK  2.74
30. YIKVDWIRVEKDMKKAKEQLKIRK  2.7
31. YIKVDWQRVEKDMKKAGEQLKIRK  2.69
32. YIKVDWQRVEKGMKKAKEQLKIRK  2.68
33. YIKVDWQRVEKDMKKAKEQWKIRK  2.65
34. YIKVDWQRVEKDMKKAKEQLKERK  2.65
35. YIKVDWQRVEKQMKKAKEQLKIRK  2.63
36. MIKVDWQRVEKDMKKAKEQLKIRK  2.63
37. YIKVDWQRDEKDMKKAKEQLKIRK  2.62
38. YIKVDWQRVEKDMKKAKEQTKIRK  2.62
39. YIKVDWQRVENDMKKAKEQLKIRK  2.59
40. YIKVDWQREEKDMKKAKEQLKIRK  2.56
41. YRKVDWQRVEKDMKKAKEQLKIRK  2.53
42. YIKVDWQRVEKDMKKAKEQLKQRK  2.51
43. YIKVDWQPVEKDMKKAKEQLKIRK  2.48
44. YIKVLWQRVEKDMKKAKEQLKIRK  2.48
45. YIKVDWQRVEKDMKKAKSQLKIRK  2.46
46. YIKVMWQRVEKDMKKAKEQLKIRK  2.46
47. YIKVGWQRVEKDMKKAKEQLKIRK  2.43
48. YIKVDWQRVEKDMKKAKEQEKIRK  2.4
49. YIEVDWQRVEKDMKKAKEQLKIRK  2.4
50. YIKYDWQRVEKDMKKAKEQLKIRK  2.4
51. YIKVDWQRVEKDMKVAKEQLKIRK  2.39
52. YIKVDWQRVEKDMKKAYEQLKIRK  2.37
53. YIKVDWQAVEKDMKKAKEQLKIRK  2.35
54. YIKVDWQRVSKDMKKAKEQLKIRK  2.33
55. YIKVDWQRVEKDNKKAKEQLKIRK  2.3
56. YIKVDWQRVEKDWKKAKEQLKIRK  2.29
57. YIKVDLQRVEKDMKKAKEQLKIRK  2.28
58. YIKVDWQRVEKDMKKAREQLKIRK  2.27
59. YIKVDWQRVEKDMKKAKEQLKIVK  2.26
60. YLKVDWQRVEKDMKKAKEQLKIRK  2.26
61. YIKVDWQRVEKDMKKAKEQLKKRK  2.25
62. YIKSDWQRVEKDMKKAKEQLKIRK  2.25
63. YIKVDYQRVEKDMKKAKEQLKIRK  2.24
64. YIKLDWQRVEKDMKKAKEQLKIRK  2.23
65. IIKVDWQRVEKDMKKAKEQLKIRK  2.21
66. YIKVDWQRVEKDMKKALEQLKIRK  2.21
67. YIKVDWQRVEKDSKKAKEQLKIRK  2.21
68. YIKVDWQRVEKDMLKAKEQLKIRK  2.19
69. YIKVDWQRQEKDMKKAKEQLKIRK  2.16
70. YIKVDWQRVEVDMKKAKEQLKIRK  2.16
71. YIKVDWQEVEKDMKKAKEQLKIRK  2.15
72. YIKVDWQRVEKDMKKAEEQLKIRK  2.15
73. YIKVDWQRVEKDMKYAKEQLKIRK  2.14
74. YIKVDWQRVEKDMKKAKEQLGIRK  2.13
75. YIKVDWQRVEKDMKKAKEQLKFRK  2.12
76. YIKVDWQRVEKDMKKAKEQLKIRH  2.12
77. YIKVDWQHVEKDMKKAKEQLKIRK  2.11
78. YIKVDWQRVEKDMKTAKEQLKIRK  2.11
79. YIKVDWQRVEKDMWKAKEQLKIRK  2.1
80. YIWVDWQRVEKDMKKAKEQLKIRK  2.09
81. YIKVDWQRVERDMKKAKEQLKIRK  2.09
82. YIKVDWQRVEKDMKKRKEQLKIRK  2.08
83. YIPVDWQRVEKDMKKAKEQLKIRK  2.07
84. YIKVDWQRVEKDMKKAKEQLKIDK  2.06
85. YIKVDWQRVEKDMKKAKEQLCIRK  2.06
86. YIKVDWQDVEKDMKKAKEQLKIRK  2.05
87. YIKVDWQRLEKDMKKAKEQLKIRK  2.04
88. YIKVDWQRVEKDMKKAKESLKIRK  2.04
89. YIKVDWQRVEKDMSKAKEQLKIRK  2.03
90. YIKVDWQRVEKDMKKAKEQLKIRD  2.02
91. YIKVDWQKVEKDMKKAKEQLKIRK  2.01
92. YIKVDWLRVEKDMKKAKEQLKIRK  2.01
93. YIKVDWQRVEEDMKKAKEQLKIRK  2.01
94. YIKVDWQRVEKDMKKAKEQCKIRK  2
95. YIKVDWQFVEKDMKKAKEQLKIRK  1.99
96. YIKVDWQRVEKDMKKAKQQLKIRK  1.99
97. WIKVDWQRVEKDMKKAKEQLKIRK  1.99
98. YIKVDWQRVEKDMKKAKEQLKNRK  1.98
99. YIFVDWQRVEKDMKKAKEQLKIRK  1.98
100. YIKVDWQRVEKDMKKYKEQLKIRK  1.98
101. YIKVDWQRVEKDMKKAKEQLKMRK  1.97
102. YIKVDWQSVEKDMKKAKEQLKIRK  1.96
103. YIKVDWQRVEKDMKKAKEQPKIRK  1.95
104. YIKVDWKRVEKDMKKAKEQLKIRK  1.95
105. YIKVDWQRVEHDMKKAKEQLKIRK  1.95
106. YIKVDWQRVEKDMKKAHEQLKIRK  1.94
107. YIKVDWQRVEKDMKWAKEQLKIRK  1.94
108. YIKVDWQRVEKDMKKAKEQLKDRK  1.92
109. YIKVDWERVEKDMKKAKEQLKIRK  1.92
110. YIKKDWQRVEKDMKKAKEQLKIRK  1.92
111. YIKVDWQRVEKDKKKAKEQLKIRK  1.92
112. YIMVDWQRVEKDMKKAKEQLKIRK  1.91
113. YIKVDWQRVEKDMKKGKEQLKIRK  1.89
114. YIKVDWQRVEKDMKGAKEQLKIRK  1.89
115. YIKVDWQRVEKDMKKAKEQLKYRK  1.88
116. YISVDWQRVEKDMKKAKEQLKIRK  1.88
117. YIKVDWQRVEKDMKKAKEQLTIRK  1.87
118. YIKVDWQRVEKDEKKAKEQLKIRK  1.87
119. YIKVDWQRVEKDMKKAKEQLKIRG  1.85
120. FIKVDWQRVEKDMKKAKEQLKIRK  1.85
121. YIKVDWQRVDKDMKKAKEQLKIRK  1.85
122. YIKVDWQRVEKDMKKMKEQLKIRK  1.85
123. YIKVDWQRVEKDMKKAKKQLKIRK  1.84
124. YIKVDWQRVEKDMKKAKYQLKIRK  1.84
125. YIKVDWQRVEKDMKKAKEQLPIRK  1.84
126. YVKVDWQRVEKDMKKAKEQLKIRK  1.83
127. YIKQDWQRVEKDMKKAKEQLKIRK  1.83
128. YIKVDWQRVEKDQKKAKEQLKIRK  1.82
129. YIKVDWQRVEKDHKKAKEQLKIRK  1.82
130. YIKVDWQRVEKDMKKAKENLKIRK  1.81
131. YIKVDWQRVEKDMKMAKEQLKIRK  1.79
132. YIKVDWQRVEIDMKKAKEQLKIRK  1.78
133. YIKVDWQRVFKDMKKAKEQLKIRK  1.78
134. YIKVDWQRVEKDMKKDKEQLKIRK  1.78
135. YIKVDWQRVEKDMKAAKEQLKIRK  1.78
136. YIKVDWQRVEKDMKKAKEQDKIRK  1.77
137. YIKVDWQRVPKDMKKAKEQLKIRK  1.77
138. YIKVDWQRVEKDMKKAKEQLKIEK  1.76
139. YIKVDWQRVEKDMKKSKEQLKIRK  1.75
140. YIKVDWQRVEKTMKKAKEQLKIRK  1.74
141. YIKVDWQRREKDMKKAKEQLKIRK  1.73
142. YIKVDWQRVEKDCKKAKEQLKIRK  1.73
143. YIKVDWQRVEKDMKKAKEQHKIRK  1.71
144. YIKVDWQRVEKDMKKAKEQLLIRK  1.71
145. YIKTDWQRVEKDMKKAKEQLKIRK  1.71
146. YIKVDWQRVEKDMKKAIEQLKIRK  1.71
147. YIKVDWQRVEKDMKKAKEQLKIGK  1.69
148. YIKVDWQQVEKDMKKAKEQLKIRK  1.68
149. YIKVDWQRVEKDMKKAKEQLKIRS  1.67
150. YILVDWQRVEKDMKKAKEQLKIRK  1.67
151. YIKVDWQRTEKDMKKAKEQLKIRK  1.66
152. YIKVDWQRVEKDMKSAKEQLKIRK  1.65
153. YIKVDWQRVEKDMKKAKEQLQIRK  1.62
154. YIKVDWQRVEKDMKKATEQLKIRK  1.62
155. YIKVQWQRVEKDMKKAKEQLKIRK  1.62
156. YIKVDWQRHEKDMKKAKEQLKIRK  1.61
157. YIKVDWQRVEKDMKKAKEQLKIRP  1.6
158. YIKVDWQRVEKDMAKAKEQLKIRK  1.6
159. YIKVDWQRVEKDMKKAKEQKKIRK  1.59
160. YIKVDWQRVEKDMKKAKEQLKTRK  1.57
161. YIKVDWQRVEKDMKKAKEQLKIFK  1.57
162. YIKVDWQRVEYDMKKAKEQLKIRK  1.55
163. YIKVDWQRVEKDMKEAKEQLKIRK  1.55
164. YIKVDWQRVECDMKKAKEQLKIRK  1.53
165. YIKVDWQRVVKDMKKAKEQLKIRK  1.52
166. YIKVDWQRVEKDMFKAKEQLKIRK  1.51
167. YIKVDWQRAEKDMKKAKEQLKIRK  1.5
168. YIKVDWQRVEKDMKKAKEQNKIRK  1.49
169. YIKVSWQRVEKDMKKAKEQLKIRK  1.47
170. YIKVDWQRVELDMKKAKEQLKIRK  1.46
171. YIKVDWHRVEKDMKKAKEQLKIRK  1.45
172. YIKMDWQRVEKDMKKAKEQLKIRK  1.45
173. YIKVDWQRVEKDMKKAKECLKIRK  1.43
174. YIKVDWQRVEKDMKKAKEQQKIRK  1.42
175. YIKVDWQRVEKDMKFAKEQLKIRK  1.42
176. YIHVDWQRVEKDMKKAKEQLKIRK  1.39
177. YIKVDWQRVEKDMKKVKEQLKIRK  1.38
178. YIKVDWQRVEKDMKKAKEHLKIRK  1.33
179. YIKVDWQRVEKDMKKAKERLKIRK  1.33
180. YIKVDWQRVEKDMKKAKEQMKIRK  1.32
181. YIKVDWQRMEKDMKKAKEQLKIRK  1.26
182. YIKVDWQRVEKDAKKAKEQLKIRK  1.24
183. YIKVDWQRVEKDMKKAKEQLKARK  1.21
184. YIKVDWQRVEGDMKKAKEQLKIRK  1.2
185. YIKVDWQRVEKDMKKAKEQLKIRR  1.12
186. YIKVDWQCVEKDMKKAKEQLKIRK  1.04
187. YIKVDWQRVEKHMKKAKEQLKIRK  1.03
188. YIKVCWQRVEKDMKKAKEQLKIRK  1.03
